Substrate in data set [1]: Nc1ncnc2c1ncn2[C@@H]1O[C@H](COP(=O)(O)O)[C@@H](O)[C@H]1O
Briefly: enzyme kinetics. Format: biochemical, Homo sapiens.

Substrate in data set [2]: Nc1ccn([C@@H]2O[C@H](COP(=O)(O)O)[C@@H](O)[C@H]2O)c(=O)n1
Briefly: enzyme kinetics. The data set is classed as biochemical, Homo sapiens.

The Km is the concentration of substrate that gives half-maximal velocity.

B1: CD73 (5ʹ-Nucleotidase) (Homo sapiens) (protein)
chain: WELTILHTNDVHSRLEQTSEDSSKCVNASRCMGGVARLFTKVQQIRRAEPNVLLLDAGDQYQGTIWFTVYKGAEVAHFMNALRYDAMALGNHEFDNGVEGLIEPLLKEAKFPILSANIKAKGPLASQISGLYLPYKVLPVGDEVVGIVGYTSKETPFLSNPGTNLVFEDEITALQPEVDKLKTLNVNKIIALGHSGFEMDKLIAQKVRGVDVVVGGHSNTFLYTGNPPSKEVPAGKYPFIVTSDDGRKVPVVQAYAFGKYLGYLKIEFDERGNVISSHGNPILLNSSIPEDPSIKADINKWRIKLDNYSTQELGKTIVYLDGSSQSCRFRECNMGNLICDAMINNNLRHTDEMFWNHVSMCILNGGGIRSPIDERNNGTITWENLAAVLPFGGTFDLVQLKGSTLKKAFEHSVHRYGQSTGEFLQVGGIHVVYDLSRKPGDRVVKLDVLCTKCRVPSYDPLKMDEVYKVILPNFLANGGDGFQMIKDELLRHDSGDQDINVVSTYISKMKVIYPAVEGRIK
With B1, the Km is 2.7 µM in data set [1] and 45 µM in data set [2].

The values are drawn from article PMC8403083.
